Data: US20240294622A1 (SUZHOU TRANSCENTA THERAPEUTICS, published 2024)

T1: HGREM1-His (ACRO) (human, UniProt O60565 25-184)
T1 construct: Lys25-Asp184 of NP_037504 with C-terminal polyhistidine tag (ACRO GR1-H52H3); they are put here; also called hGREM1 (ACRO); human gremlin (ACRO)
T1 sequence: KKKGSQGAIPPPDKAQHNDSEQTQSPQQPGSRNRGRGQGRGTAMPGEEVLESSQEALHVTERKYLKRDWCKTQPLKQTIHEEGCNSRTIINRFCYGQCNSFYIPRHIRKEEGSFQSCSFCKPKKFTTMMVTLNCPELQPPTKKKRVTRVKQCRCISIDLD

T2: Mouse Gremlin-His (R&D) (mouse, UniProt O70326 25-184)
T2 construct: Lys25-Asp184 with 10xHis, R&D 956-GR; also called mouse gremlin (R&D); mGREM1
T2 sequence: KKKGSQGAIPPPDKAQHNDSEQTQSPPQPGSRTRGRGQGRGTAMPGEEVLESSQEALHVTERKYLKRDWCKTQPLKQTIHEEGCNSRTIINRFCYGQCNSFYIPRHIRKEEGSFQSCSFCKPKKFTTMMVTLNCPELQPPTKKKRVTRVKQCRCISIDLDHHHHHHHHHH

T3: XM5-Fc (human (hGREM1 with residues 123-143 …))
T3 construct: also called gremlin 1-DAN fusion protein
T3 chain: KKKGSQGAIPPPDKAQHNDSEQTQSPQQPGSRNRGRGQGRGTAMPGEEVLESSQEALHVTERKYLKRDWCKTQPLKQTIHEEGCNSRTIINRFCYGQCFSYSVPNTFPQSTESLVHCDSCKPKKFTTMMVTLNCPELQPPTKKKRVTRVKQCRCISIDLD

T4: hGREM1 (source and construct not stated) (human, UniProt O60565 25-184)
T4 construct: also called Gremlin; gremlin
T4 sequence: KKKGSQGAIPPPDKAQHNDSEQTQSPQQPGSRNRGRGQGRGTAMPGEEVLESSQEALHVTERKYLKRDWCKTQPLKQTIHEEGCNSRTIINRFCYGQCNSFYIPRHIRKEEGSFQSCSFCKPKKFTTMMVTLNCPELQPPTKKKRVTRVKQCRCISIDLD


Columns and labels:
HGREM1-His (ACRO) [1] = target: T1, HGREM1-His (ACRO); experiment: ELISA, coated hGREM1 (ACRO)
Method: (§1) Clear polystyrene plates (BEAVER) were coated with 100 μl/well of a […] hGREM1 (ACRO) and mouse gremlin (R&D) in high pH coating buffer overnight at 4° C. Then the plates were washed once on an automatic plate washer using PBS+0.1% Tween 20 (Sigma). 100 μl of block solution consisting of PBS+1% BSA+1% normal goat serum+0.5% Tween 20 (Sigma) was added to each well and incubated at room temperature for 2 hours. Then 100 μl of antibodies in antibody dilution buffer containing PBS+1% BSA+1% normal goat serum+0.01% Tween 20 starting from 2 μg/ml and then serial dilutions were added to each well of the plate and incubated for 1 hours at room temperature. Afterward the plates were washed three times with 200 μl of PBS+0.1% Tween20 followed by adding 100 μl/well 1:10000 Goat anti mouse IgG-HRP (abcam), and incubate for 1 hour at room temperature. They were then washed 3× with PBS+0.1% Tween20. Finally, 100 µl/well of TMB (Pierce) was added to each well and after several minutes add 50 μl of stop solution to each well. The plates were read on a Multiscan FC microplate reader (Thermo Scientific) at […].

Mouse Gremlin-His (R&D) = target: T2, Mouse Gremlin-His (R&D); experiment: ELISA, coated mouse gremlin (R&D)
Method: as §1

XM5-Fc = target: T3, XM5-Fc; experiment: ELISA on coated XM5-Fc (column XM5)
Method: (§2) Binding affinities to hGREM1 and XM5 were also compared. Briefly, XM5-Fc or Gremlin-his […] was coated. 100 μl of block solution consisting of PBS+1% BSA+1% normal goat serum+0.5% Tween 20 (Sigma) was added to each well and incubated at room temperature for 2 hours. 4-fold serial antibody dilution from 2 μg/ml were added. Afterward the plates were washed three times with 200 ul of PBS+0.1% Tween20 followed by adding 100 μl/well 1:10000 Goat anti mouse IgG-HRP (abeam), and incubate for 1 hour at room temperature. They were then washed 3× with PBS+0.1% Tween20. Finally, 100 μl/well of TMB (InnoReagents) was added to each well and after 2 minutes add 50 ul of stop solution to each well. The plates were read on a Multiscan FC microplate reader (Thermo Scientific) at […]. The EC50 values were show in table below.

HGREM1-His (ACRO) [2] = target: T1, HGREM1-His (ACRO); experiment: competition ELISA, Gremlin-his binding to coated BMP7
HGREM1-His (ACRO) [3] = target: T1, HGREM1-His (ACRO); experiment: ELISA on coated Gremlin-his (column Gremlin)
Method: as §2

HGREM1-His (ACRO) [4] = target: T1, HGREM1-His (ACRO); experiment: blocking ELISA, Human Gremlin-1 binding to FGFR1
Method: Next, 0.25 μg/ml of gremlin was selected to test the blocking activity. The ability of antibodies to block Gremlin binding to human FGFR1-Fc was examined via ELISA. Plates were coated with recombinant FGFR1-Fc (2 μg/ml) overnight and then serial dilutions of antibodies were incubated with 0.25 μg/ml of human Gremlin-his modified for 1 h at RT before this complex was added to coated plates and allowed to incubate for an additional hour at RT. The plates were then washed and added with anti-his HRP (GenScript). Plates were then developed with a TMB solution and stopped by adding stop solution. The plates were read on a plate reader at 450 nm. […] Humanized anti-GREM1 antibodies provided herein (e.g., Hu14E3, Hu22F1) are expected to show the similar technical effect as their chimeric counterparts in blocking the binding of hGREM1 to FGFR1.

HGREM1-His (ACRO) [5] = target: T1, HGREM1-His (ACRO); experiment: blocking ELISA, Human Gremlin-1 binding to BMP2; column OD450
Method: (§3) In addition, the ability of serial dilutions of antibodies provided herein to block Gremlin binding to human BMP2/4/7 was also examined via ELISA. Plates were coated with recombinant human BMP2/4/7 (0.5 μg/ml) overnight and then serial dilutions of antibodies were incubated with 1 μg/ml of human Gremlin-his modified for 1 h at RT before this complex was added to coated plates and allowed to incubate for an additional hour at RT. The plates were then washed and added with anti-his HRP (GenScript). Plates were then developed with a TMB solution and stopped by adding stop solution. The plates were read on a plate reader at 450 nm. […] The chimeric anti-gremlin 1 antibodies (69H5-chi) and chimeric anti-gremlin 1 antibodies (22F1-chi) also can inhibit the binding of gremlin to BMP2 and BMP4 (see, FIG. 3E and FIG. 3F). The chimeric anti-gremlin 1 antibodies (56C11-chi) can inhibit the binding of gremlin to BMP2 (see, FIG. 3E).

HGREM1-His (ACRO) [6] = target: T1, HGREM1-His (ACRO); experiment: blocking ELISA, Human Gremlin-1 binding to BMP4; column OD450
Method: as §3

HGREM1-His (ACRO) [7] = target: T1, HGREM1-His (ACRO); experiment: blocking ELISA, Human Gremlin-1 binding to BMP7; column OD450
Method: as §3

HGREM1-His (ACRO) [8] = target: T1, HGREM1-His (ACRO); experiment: blocking ELISA, Human Gremlin-1 binding to BMP2; column Percentage
Method: as §3

HGREM1-His (ACRO) [9] = target: T1, HGREM1-His (ACRO); experiment: blocking ELISA, Human Gremlin-1 binding to BMP4; column Percentage
Method: as §3

HGREM1-His (ACRO) [10] = target: T1, HGREM1-His (ACRO); experiment: blocking ELISA, Human Gremlin-1 binding to BMP7; column Percentage
Method: as §3

[11] = target: T4, hGREM1 (source and construct not stated); experiment: ELISA on hGREM1

Row | EC50 (HGREM1-His (ACRO) [1]) [µg/mL] | EC50 (Mouse Gremlin-His (R&D)) [µg/mL] | EC50 (XM5-Fc) [µg/mL] | maximal blocking percentage (HGREM1-His (ACRO) [2]) [%] | EC50 (HGREM1-His (ACRO) [3]) [µg/mL] | IC50 (HGREM1-His (ACRO) [4]) [µg/mL] | IC50 (HGREM1-His (ACRO) [5]) [µg/mL] | IC50 (HGREM1-His (ACRO) [6]) [µg/mL] | IC50 (HGREM1-His (ACRO) [7]) [µg/mL] | IC50 (HGREM1-His (ACRO) [8]) [µg/mL] | IC50 (HGREM1-His (ACRO) [9]) [µg/mL] | IC50 (HGREM1-His (ACRO) [10]) [µg/mL] | EC50 [11] [µg/mL] | Binder
1 | 0.00784 | 0.00771 | 0.00665 | ≥ 50 | 0.0126 | 2.41 | 0.547 | 0.367 | 0.848 | 0.548 | 0.367 | 0.848 | – | 67G11 (antibody, V domains shown, mouse hybridoma antibody; also called hybridoma 67G11) VH: QVQLQQSGAELARPGASVKLSCKASGYTFTSYGIGWVKQRTGQGLEWIGEIYPRSGNTYNNEKFKGKATLTADKSSRTVYMELRSLISEDSAVYFCAREGYSNNYYAMDYWGQGTSVTVFS VL: DVLMTQTPLSLPVSLGDQASISCRSSQSLVHSNGNTYLEWYLQKPGQSPKLLIYKVSNRFSGVPDRLSGSGSGTDFTLKISRVEAEDLGVYYCFQGSHVPFTFGSGTKLEIK
2 | – | – | – | – | – | – | – | – | – | – | – | – | 0.00489 | 56C11-C (chimeric antibody of 56C11) (antibody, human IgG1, V domains shown, also called 56C11-chi) VH: EVQLQQSGPELVKPGASVKISCKASGYTFTDFYMNWVKQSHGKSLEWIGDINPNNGGTSYNQKFKGKATLTVDKSSSTAYMELRSLTSEDSAVYYCARDPIYYDYDEVAYWGQGTLVTVSA VL: DVVMTQTPLSLPVSLGDQASISCRSSQSLVHSNGNTYLHWYLQKPGQSPKLLIYKVSNRFSGVPDRFSGSGSGTDFTLKISRVEAEDLGVYFCSQSTHVPLTFGAGTKLELK
